Measurements as given in publication doi:10.1101/2025.01.22.634233.

Columns and labels:
Test in all cases: fluorescence polarisation
[1] = molecular target: pS5-(CTD)2 peptide, 5,6-FAM-labelled
[2] = molecular target: non-phosphorylated (CTD)2 peptide, 5,6-FAM-labelled
[3] = molecular target: pY1pS5-(CTD)2 peptide, 5,6-FAM-labelled

Row | Substance | Kd [1] | Kd [2] | Kd [3]
1 | BRCA1 BRCT R1699L (from UniProt P38398 1646-1859) (domain or fragment) | 413 µM | – | –
2 | BRCA1 BRCT (BRCA1^1646-1859), wild type (from UniProt P38398 1646-1859) (domain or fragment) | – | 948 µM | 184 µM
3 | BRCA1 BRCT^S1655F,K1702M (from UniProt P38398 1646-1859) (domain or fragment) | 895 µM | – | –
